These results are taken from US9873733B2, “Anti-staphylococcal antibodies” (priority 2012, dated 2018).

Assay [1] has as its target cyclic peptide representing loop 4 of MprF (Staphylococcus aureus, UniProt Q2G2M2). The following applies: IgG in PBS; biotinylated cyclic peptide 5 μg/ml. On the procedure:
The IgGs were tested for binding to the antigen, which was used in their selection. Also binding to other MprF-peptides was tested to check for selectivity.
For ELISAs with cyclic antigen, the biotinylated cyclic peptides (final conc. 5 μg/ml) were incubated with IgGs in PBS. Then the mix was transferred to a pre-blocked Neutravidin plate (Thermo Scientific), incubated and then the plate was washed with PBS containing 0.5% of TWEEN20. MprF-specific IgGs were detected using goat-anti-human IgG (Sigma).
In both cases washing was performed using PBST ([…] with 0.05% TWEEN20. Detection was performed using alkaline phosphatase coupled Goat anti-human IgG (Sigma Cat. # A-8542 and Attophos™ substrate Roche, Cat. #11681982001). Fluorescence was measured at an excitation of 440±25 nm and an emission of 550±35 nm. Full signal intensity is typically reached after 5-15 min at room temperature.

For assay [2], the system named is MprF on S. aureus (Protein A deletion mutant, delta spa). Description: Whole cell ELISA on S. aureus. Type of assay: binding, Staphylococcus aureus. The following applies: E. coli as negative control. The procedure:
(§1) The specificity of the purified antibodies was tested for binding to whole cell Staphylococcus aureus in an ELISA assay. Escherichia coli bacteria were used as a negative control.
(§2) For ELISA on S. aureus the Protein A deletion mutant (delta spa) or the mutant with an additional deletion in MprF (delta spa delta mprf) were grown to mid log phase, than washed in PBS and resuspended in saline to a final OD600 of 0.6. This bacterial culture was coated on Maxisorp plates (Nunc). Plates were blocked with 2% BSA/PBS and washed with TSB containing 0.5% TWEEN20.

Assay [3] has as its system S. aureus mutants lacking MprF expression (delta spa delta mprF). Description: Whole cell ELISA on S. aureus mutant lacking MprF. Type of assay: binding, Staphylococcus aureus. The following applies: compared with delta spa. The procedure:
as §1, §2
On the technique in general: An ELISA detects its analyte on a solid surface through an enzyme-linked reagent.

Assay [4] concerns S. aureus SA113 Δspa. The assay can be described thus: Killing of S. aureus by nisin with MprF antibodies. Type of assay: cell-based, Staphylococcus aureus. The following applies: antibody 100 μg/ml, 22.5 μg/ml nisin, 2 hours; anti-lysozyme antibody as control. On the procedure: In this experiment killing of Staphylococcus aureus was tested. Nisin was used as an exemplary cationic antimicrobial compound. Nisin was tested in combination with selected antibodies of the present invention. An anti-lysozyme antibody was used as a negative control.
(§3) Overnight cultures of S. aureus SA113 Δspa were diluted in fresh MHB medium and adjusted to OD600 0.25 (˜1.5×10^7 cells). Antibodies were adjusted to a concentration of 1 mg/ml and 10 μl were applied per well of a 96 well plate and diluted in 90 μl of the adjusted cell suspension (final antibody concentration: 100 μg/ml). Cells were grown in the presence of anti-lysozyme antibody (control) or with the anti-MprF antibodies. Duplicates were employed for each assay. After 3 hours of incubation under shaking conditions at 37° C., optical density was determined, adjusted to OD600 0.025 in 500 μl ice cold PBS buffer. 80 μl of the adjusted cell suspension were diluted with 20 μl of antimicrobial substances to final concentrations of 22.5 μg/ml nisin. After incubation for 2 hours under shaking conditions at 37° C., the cell suspensions were diluted 1:2000 and 100 μl of each duplicate was plated in triplicates on TSB medium containing agar plates to obtain a representative value of bacterial survival. Cells treated without antimicrobial substance were set at 100% and survival values were calculated with cells treated with antimicrobial substances. At least three independent assays were employed.

Assay [5] deals with S. aureus SA113 Δspa. Description: Killing of S. aureus by daptomycin with MprF antibodies. Format: cell-based, Staphylococcus aureus. The conditions noted are these: antibody 100 μg/ml, 12.5 μg/ml Daptomycin; anti-lysozyme antibody as control. On the procedure: as §3
The previous experiment was repeated, but instead of nisin, daptomycin is used. […]

For assay [6], the system named is S. aureus SA113 Δspa. The assay can be described thus: Killing of S. aureus by LL-37 with MprF antibodies. Type of assay: cell-based, Staphylococcus aureus. The following applies: antibody 100 μg/ml, 45.0 μg/ml LL-37; anti-lysozyme antibody as control. On the procedure:
as §3
The previous experiment was repeated, but instead of nisin LL-37 is used. […]

The test system of assay [7] is S. aureus SA113 Δspa (flippase reaction of MprF). The assay can be described thus: Cytochrome C repulsion assay. Format: cell-based, Staphylococcus aureus. The following applies: pre-incubation 3 hours, compared to anti-lysozyme antibodies. On the procedure:
The repulsion of positively charged cytochrome C has been repeatedly employed to investigate charge dependent cell surface modifications in bacteria, including the flippase reaction of MprF, which leads to increased positively charged lipids in the outer leaflet of the membrane and to increased repulsion of cytochrome C (Ernst et al., PLoS Pathogens 2009). Briefly, cells were grown in the presence of M-C4.1 or anti-lysozyme for 3 hours, followed by incubation with cytochrome C for 15 minutes and measurement of optical density of the supernatant in order to determine repulsion of positively charged cytochrome C. The established cytochrome C repulsion assay was scaled down to accommodate for the reduced amount of bacteria employed in the killing-assays.

The subject of assay [8] is S. aureus SA113 Δspa (MprF-mediated flipping of lysyl-phosphatidylglycerol). The assay can be described thus: Annexin V assay. Type of assay: cell-based, Staphylococcus aureus. The following applies: flow cytometry; anti-lysozyme pre-treated cells set at 100%. The procedure:
Annexin V binds preferentially to negatively charged phospholipids and is therefore a useful tool for measuring the relative content of MprF-mediated flipping of lysyl-phosphatidylglycerol, as translocation leads to reduced accessibility of negatively charged phospholipids in the outer leaflet of the membrane and therefore to reduced binding of annexin V. Cells (S. aureus SA113 Δspa) were grown in the presence of M-C4.1 or anti-lysozyme antibody and then treated with annexin V for 15 minutes before being analyzed by flow cytometry for surface-bound fluorophore (FL-4 channel). Data are expressed in relative fluorescence units and compared to cells pre-treated with anti-lysoyzme set at 100% fluorescence.

Assay [9] concerns Staphylococcus aureus clinical isolate 703. The assay can be described thus: Killing of clinical isolate 703 by daptomycin. Type of assay: cell-based. The conditions noted are these: 11 μg/ml daptomycin; anti-lysozyme antibody as control. The procedure: as §3
In this experiment killing of Staphylococcus aureus clinical isolate 703 (described in Jones et al., AAC 2008) by daptomycin in the presence of an MprF specific antibody was analyzed. […]

B1: M-C4.1: human IgG1 against cyclic peptide, loop 4 of MprF; VH1A kappa 1; VL Seq. ID: 44, VH Seq. ID: 45 (antibody, V domains shown)
VH: QVQLVQSGAEVKKPGSSVKVSCKASGGTFNSYAISWVRQAPGQGLEWMGGIIPIFGMATYAQKFQGRVTITADESTSTAYMELSSLRSEDTAVYYCARSLFGRAYWGQGTLVTVSS
VL: DIQMTQSPSSLSASVGDRVTITCRASQSISSFLAWYQQKPGKAPKLLIYDASSLQSGVPSRFSGSGSGTDFTLTISSLQPEDFATYYCLQADSTSYTFGQGTKVEIKRT
modifications: MC41 VH; MC41 VL
notes: human IgG1 against cyclic peptide, loop 4 of MprF; VH1A kappa 1; ID: 45
Consider B1, for which the “Specific binding to cyclic loop 4 peptide (ELISA)” value in assay [1] was “specifically bind to cyclic loop 4 peptide in a dose-dependent manner”. In [2], the “Binding to whole cell S. aureus (ELISA)” value was “detect MprF on S. aureus”. Further, in [3], the “Binding to S. aureus mutants lacking MprF expression (ELISA)” value was “significantly weaker binding”. The “Sensitivity of S. aureus towards nisin (killing, bacterial survival)” value with S. aureus SA113 Δspa [4] is on record as “most pronounced effects”. Besides, the “Sensitivity of S. aureus towards daptomycin (killing)” value in the assay with S. aureus SA113 Δspa [5] is “increased the sensitivity of Staphylococcus aureus towards daptomycin”. Also, the “Sensitivity of S. aureus towards LL-37 (killing)” value with S. aureus SA113 Δspa [6] is reported as “increased the sensitivity of Staphylococcus aureus towards LL-37”. In addition, the “Decreased repulsion of cytochrome C” value in [7] came to 40%. Further, in assay [8], the “Increased binding of annexin V” value came to 70%. Further, the “Susceptibility of S. aureus 703 to daptomycin (killing) with MprF antibody” value in assay [9] was “restored susceptibility of S. aureus 703 bacteria to daptomycin”.
